Data published in patent publication US20220042033A1, “COMPOSITION AND METHOD FOR CONFERRING AND/OR ENHANCING TOLERANCE AGAINST HERBICIDES BY USING VARIANTS OF PPO” (FarmHannong Co., Ltd., priority 2017, published 2022).
Positions count from the first letter of the chain named. Numbers in names are those of the source.

B1: A170L: MxPPO (SEQ ID NO: 3) variant (protein)
chain: MHHMPRTTGMNVAVVGGGISGLAVAHHLRSRGTDAVLLESSARLGGAVGTHALAGYLVEQGPNSFLDREPATRALAAALNLEGRIRAADPAAKRRYVYTRGRLRSVPASPPAFLASDILPLGARLRVAGELFSRRAPEGVDESLAAFGRRHLGHRATQVLLDAVQTGIYLGDVEQLSVAATFPMLVKMEREHRSLILGAIRAQKAQRQAALPAGTAPKLSGALSTFDGGLQVLIDALAASLGDAAHVGARVEGLAREDGGWRLIIEEHGRRAELSVAQVVLAAPAHATAKLLRPLDDALAALVAGIAYAPIAVVHLGFDAGTLPAPDGFGFLVPAEEQRRMLGAIHASTTFPFRAEGGRVLYSCMVGGARQPGLVEQDEDALAALAREELKALAGVTARPSFTRVFRWPLGIPQYNLGHLERVAAIDAALQRLPGLHLIGNAYKGVGLNDCIRNAAQLADALVAGNTSHAP
modifications: Synthetic (Protoporphyrinogen IX oxidase (MxPPO) of Myxococcus xanthus)
B2: A170C + M365V: MxPPO (SEQ ID NO: 3) variant (protein)
chain: B1 chain with L170C, M365V
modifications: Synthetic (Protoporphyrinogen IX oxidase (MxPPO) of Myxococcus xanthus)
B3: R95A + A170C + M365I: MxPPO (SEQ ID NO: 3) variant (protein)
chain: B1 chain with R95A, L170C, M365I
modifications: Synthetic (Protoporphyrinogen IX oxidase (MxPPO) of Myxococcus xanthus)
B4: L332T + M365I: MxPPO (SEQ ID NO: 3) variant (protein)
chain: B1 chain with L170A, L332T, M365I
modifications: Synthetic (Protoporphyrinogen IX oxidase (MxPPO) of Myxococcus xanthus)
B5: R95A + I168C + M365I: MxPPO (SEQ ID NO: 3) variant (protein)
chain: B1 chain with R95A, I168C, L170A, M365I
modifications: Synthetic (Protoporphyrinogen IX oxidase (MxPPO) of Myxococcus xanthus)
B6: A170C + M365I: MxPPO (SEQ ID NO: 3) variant (protein)
chain: B1 chain with L170C, M365I
modifications: Synthetic (Protoporphyrinogen IX oxidase (MxPPO) of Myxococcus xanthus)
B7: R95A + I311M + M365V: MxPPO (SEQ ID NO: 3) variant (protein)
chain: B1 chain with R95A, L170A, I311M, M365V
modifications: Synthetic (Protoporphyrinogen IX oxidase (MxPPO) of Myxococcus xanthus)
B8: R95A + L332T + M365I: MxPPO (SEQ ID NO: 3) variant (protein)
chain: B1 chain with R95A, L170A, L332T, M365I
modifications: Synthetic (Protoporphyrinogen IX oxidase (MxPPO) of Myxococcus xanthus)
B9: L332T + M365V: MxPPO (SEQ ID NO: 3) variant (protein)
chain: B1 chain with L170A, L332T, M365V
modifications: Synthetic (Protoporphyrinogen IX oxidase (MxPPO) of Myxococcus xanthus)
B10: I311M: MxPPO (SEQ ID NO: 3) variant (protein)
chain: B1 chain with L170A, I311M
modifications: Synthetic (Protoporphyrinogen IX oxidase (MxPPO) of Myxococcus xanthus)
B11: M365T: MxPPO (SEQ ID NO: 3) variant (protein)
chain: B1 chain with L170A, M365T
modifications: Synthetic (Protoporphyrinogen IX oxidase (MxPPO) of Myxococcus xanthus)
B12: R95A: MxPPO (SEQ ID NO: 3) variant (protein)
chain: B1 chain with R95A, L170A
modifications: Synthetic (Protoporphyrinogen IX oxidase (MxPPO) of Myxococcus xanthus)
B13: R95A + M365V: MxPPO (SEQ ID NO: 3) variant (protein)
chain: B1 chain with R95A, L170A, M365V
modifications: Synthetic (Protoporphyrinogen IX oxidase (MxPPO) of Myxococcus xanthus)
B14: R95A + M365I: MxPPO (SEQ ID NO: 3) variant (protein)
chain: B1 chain with R95A, L170A, M365I
modifications: Synthetic (Protoporphyrinogen IX oxidase (MxPPO) of Myxococcus xanthus)
B15: I311M + M365V: MxPPO (SEQ ID NO: 3) variant (protein)
chain: B1 chain with L170A, I311M, M365V
modifications: Synthetic (Protoporphyrinogen IX oxidase (MxPPO) of Myxococcus xanthus)
B16: I311M + M365I: MxPPO (SEQ ID NO: 3) variant (protein)
chain: B1 chain with L170A, I311M, M365I
modifications: Synthetic (Protoporphyrinogen IX oxidase (MxPPO) of Myxococcus xanthus)

What was measured:
[1] = test system: MxPPO; test: Herbicide tolerance test of MxPPO wild type and variants in PPO-deficient E. coli BT3(ΔPPO), growth on herbicide-containing LB agar; type: cell-based, Myxococcus xanthus; details: relative to MxPPO WT, light; for Herbicide tolerance, saflufenacil: up to 200 μM (FIG. 13); for Herbicide tolerance, tiafenacil: 2000 μM (FIG. 14); for Herbicide tolerance, sulfentrazone: up to 1000 μM (FIGS. 18-20)
Protocol: Then, the extent of tolerance was evaluated.

[2] = test system: MxPPO; test: PPO enzyme activity of purified MBP-fused MxPPO wild type and variants; type: biochemical, Myxococcus xanthus; details: PPO enzyme activity of purified MxPPO protein, relative to wild type
Protocol: Thus, PPO proteins of wild type and variants were expressed as fused to MBP and were used for experiments.
The following process for purification of PPO protein was performed in a 4° C. cold room. […] The column was washed with 3 column volumes of buffer and the presence of protein in the washing solution was examined. When the protein was no longer detected, the washing procedure was terminated. Then, the MBP-PPO protein was eluted with approximately 2 column volumes of buffer containing 20 mM maltose. The protein concentration of each eluent was determined and the elution was stopped when the protein was no longer detected. Ten microliter of each fraction was investigated for protein quantification and SDS-PAGE analysis. The highly pure fractions of PPO protein variants were used for the enzyme assay.
Since protoporphyrinogen IX, a substrate of PPO protein, was not commercially available, it was chemically synthesized in the laboratory. Overall process was performed in dark under nitrogen stream. […] of protoporphyrin IX was dissolved in 20 ml of 20% (v/v) EtOH, and stirred under dark condition for 30 minutes. The obtained protoporphyrin IX solution was put into a 15 ml screw tube in an amount of 800 μl, and flushed with nitrogen gas for 5 minutes. To this, 1.5 g of sodium amalgam was added and vigorously shaken for 2 minutes. The lid was opened to exhaust hydrogen gas in the tube. Thereafter, the lid was closed and incubated for 3 minutes. The protoporphyrinogen IX solution was filtered using syringe and cellulose membrane filter. To 600 μl of the obtained protoporphyrinogen IX solution, approximately 300 μl of 2M MOPS [3-(N-morpholino) propanesulfonic acid] was added to adjust pH to 8.0. To determine the enzyme activity of PPO protein, a reaction mixture was prepared with the following composition (based on 10 ml): 50 mM Tris-Cl (pH 8.0); 50 mM NaCl; 0.04% (v/v) Tween 20; 40 mM glucose (0.072 g); 5 units glucose oxidase (16.6 mg); and 10 units catalase (1 μl).
Hundred and eighty microliters of a reaction mixture […] were placed in 96 well plates and 20 μl of purified PPO proteins were added. After 50 μl of the mineral oil was layered, the reaction was initiated by adding the substrate, protoporphyrinogen IX solution, to a final concentration of 50 μM. The reaction proceeded at room temperature for 30 min and the fluorescence of protoporphyrin IX was measured using Microplate reader (Sense, Hidex) (excitation: 405 nm; emission: 633 nm). To calculate the PPO enzyme activity, the protoporphyrinogen IX solution was kept open in the air overnight to oxidize the solution. To this, 2.7 N HCl was added, and the absorbance at 408 nm was measured. A standard curve was generated using standard protoporphyrin IX, and PPO activity was measured by calibration of protoporphyrin IX using the standard curve of protoporphyrin IX.
Activities of variants were presented relatively compared to that of wild type.

Row | Molecule | Herbicide tolerance, flumioxazin ([1]; up to 100 μM (FIG. 13)) | Herbicide tolerance, saflufenacil [1] | Activity (%) [2] | Herbicide tolerance, tiafenacil [1] | Herbicide tolerance, flumioxazin ([1]; up to 400 μM (FIGS. 15-17)) | Herbicide tolerance, sulfentrazone [1]
1 | B1 | ++ (10-99 fold higher tolerance) | ++ (10-99 fold higher tolerance) | 40% |  |  | 
2 | B2 |  |  | 71% | + (1-9 fold higher tolerance) | ++ (10-99 fold higher tolerance) | + (1-9 fold higher tolerance)
3 | B3 |  |  | 41% |  | + (1-9 fold higher tolerance) | + (1-9 fold higher tolerance)
4 | B4 |  |  | 80% |  | + (1-9 fold higher tolerance) | + (1-9 fold higher tolerance)
5 | B5 |  |  | 38% |  | + (1-9 fold higher tolerance) | + (1-9 fold higher tolerance)
6 | B6 |  |  | 78% |  | + (1-9 fold higher tolerance) | + (1-9 fold higher tolerance)
7 | B7 |  |  | 37% |  | ++ (10-99 fold higher tolerance) | + (1-9 fold higher tolerance)
8 | B8 |  |  | 38% |  | + (1-9 fold higher tolerance) | + (1-9 fold higher tolerance)
9 | B9 |  |  | 68% | + (1-9 fold higher tolerance) | + (1-9 fold higher tolerance) | + (1-9 fold higher tolerance)
10 | B10 | ++ (10-99 fold higher tolerance) | ++ (10-99 fold higher tolerance) | 87% |  |  | 
11 | B11 |  |  | 52% |  |  | 
12 | B12 |  |  | 43% |  |  | 
13 | B13 |  |  | 40% |  |  | 
14 | B14 |  |  | 42% |  |  | 
15 | B15 |  |  | 71% | + (1-9 fold higher tolerance) | ++ (10-99 fold higher tolerance) | + (1-9 fold higher tolerance)
16 | B16 |  |  | 75% | + (1-9 fold higher tolerance) | ++ (10-99 fold higher tolerance) | + (1-9 fold higher tolerance)
